Laboratory results reported in patent US20100167390, “Novel Oligonucleotide and NF-kB Decoy Comprising the Same” (published 2010).

Assays:
NF-kB p50 (NFKB1) = NF-kB p50 (NFKB1) (UniProt P19838 P19838:1-433); test: competition; details: protein: extract; tags: TPA and CI-stimulated Jurkat nuclear extract, Active Motif
Procedure: (§1) The study was carried out in basically the same manner as in the above-described primary screening. The activities to inhibit the binding of various NF-κB family proteins to the consensus NF-κB binding site were compared under the conditions of common ratio of 3-fold, 6 times, n=2. As a control for comparison, fully phosphorothioated decoy oligonucleotide […] (SEQ ID NO:103) was used. The binding inhibition tests against various NF-κB family proteins were conducted using NF-κB Family TransAM Kit (ACTIVE MOTIF), and using NF-κB molecules in the Jurkat, TPA and CI-Stimulated, Nuclear Extract (ACTIVE MOTIF) for p50, and using NF-κB molecules in the Raji nuclear extract (ACTIVE MOTIF) for Rel-B and p52. As the primary antibodies, anti-NF-κB p50 antibody, anti-NF-κB p52 antibody and anti-Rel-B antibody were used, respectively, and the secondary antibody was HRP-labeled anti-rabbit IgG antibody in all cases.
(§2) More concretely, the above-described measurements were carried out as follows: Each oligonucleotide solution was serially diluted with Complete Binding Buffer to prepare test samples. Each of the test samples was added to the wells in an amount of 30 μL per well, and Complete Binding Buffer was added to the wells of the control and blank. Nuclear extract diluted with Complete Lysis Buffer was added to the wells in an amount of 20 μL per well, and Complete Lysis Buffer was added to the wells of blank. After incubation for 1 hour with shaking, each well was washed with 1× Wash Buffer, and the primary antibody was added, followed by incubation for 1 hour. Each well was washed with 1× Wash Buffer, and the secondary antibody was added, followed by incubation for 1 hour. Each well was washed with 1× Wash Buffer, and the Developing Solution was added. After allowing coloration for 10 minutes, the Stop Solution was added to stop the reaction, and the absorbances at 450 nm and 630 nm were measured.
(§3) The absorbance at 630 nm was subtracted from the absorbance at 450 nm and the mean value of the blanks was further subtracted from the resultant, and the percentage of the mean value of each concentration based on the mean value of the controls was calculated.

NF-kB p52 (NFKB2) = molecular target: T1, NF-kB p52 (NFKB2) (UniProt Q00653 Q00653:1-454); test: competition; details: protein: extract; tags: Raji nuclear extract, Active Motif
T1 sequence: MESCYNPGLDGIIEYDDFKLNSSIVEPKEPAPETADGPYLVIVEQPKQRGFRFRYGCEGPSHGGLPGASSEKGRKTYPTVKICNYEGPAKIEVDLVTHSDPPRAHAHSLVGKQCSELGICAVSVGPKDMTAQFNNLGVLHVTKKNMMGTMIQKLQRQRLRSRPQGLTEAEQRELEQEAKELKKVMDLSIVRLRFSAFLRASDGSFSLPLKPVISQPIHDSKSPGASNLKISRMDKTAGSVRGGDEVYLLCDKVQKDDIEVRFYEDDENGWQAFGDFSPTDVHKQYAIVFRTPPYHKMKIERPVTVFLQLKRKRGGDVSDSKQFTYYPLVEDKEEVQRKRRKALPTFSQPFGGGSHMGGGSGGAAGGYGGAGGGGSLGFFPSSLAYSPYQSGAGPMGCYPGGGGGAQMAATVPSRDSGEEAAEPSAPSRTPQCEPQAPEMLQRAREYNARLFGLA
Procedure: as §1, §2, §3

NF-kB p65 (RelA) [1] = molecular target: T2, NF-kB p65 (RelA) (UniProt Q04206 Q04206:1-551); test: competition; details: protein: extract; tags: TPA and CI-stimulated Jurkat nuclear extract, Active Motif TransAM kit
Procedure: The binding capacity of each SODN to NF-κB was evaluated by measuring the remaining free NF-κB after reacting each SODN with NF-κB (p65), using a commercially available kit (TransAM Kit (NF-κB, p65, ACTIVE MOTIF) for measuring NF-κB, and using NF-κB molecules in the Jurkat, TPA and CI-Stimulated, Nuclear Extract (nuclear extract of Jurkat cells stimulated with a phorbol ester (TPA) and a calcium ionophore (CI)). The measurement was performed in accordance with the instructions attached to the kit. The kit was made for quantifying the NF-κB bound to the solid phase by ELISA after adding an NF-κB solution to the wells in which the NF-κB (p65 protein) consensus binding sequence was immobilized and after washing the resultant. By this measurement method, the higher the binding capacity of the oligonucleotide to the NF-κB, the smaller amount of the NF-κB quantified by the ELISA.
More concretely, the above-described measurement was carried out as follows concretely: Each SODN solution was serially diluted with Complete Binding Buffer contained in the kit to prepare test samples (common ratio: 3-fold, 4 times, n=3). To each well, 30 μL of the test sample was added. To the wells of the control and blank, Complete Binding Buffer was added. To each well, 20 μL of the Jurkat, TPA and CI-Stimulated, Nuclear Extract contained in the kit, after dilution with Complete Lysis Buffer to a concentration of 125 μg/mL, was added. To the wells of the blank, Complete Lysis Buffer was added. After incubation for 1 hour with shaking, each well was washed with 1× Wash Buffer contained in the kit, and an anti-NF-κB (p65 protein) antibody was added, followed by incubation for 1 hour. Each well was washed with 1× Wash Buffer, and the Developing Solution contained in the kit was added. After allowing coloration for 10 minutes, the Stop Solution was added to stop the reaction, and the absorbances at 450 nm and 630 nm were measured.
The binding capacities of the partially phosphorothioated oligonucleotides (the bonds between only all of the nucleotides constituting the consensus sequence in both strands are phosphorothioated, hereinafter also referred to as “PSODN”) of SODNs 7, 8, 9, 16, 17 and 30 of the present invention to the NF-κB (p65 protein) were tested in the same manner as described above.

NF-kB p65 (RelA) [2] = molecular target: T2, NF-kB p65 (RelA); test: competition; primary screen 1.61; details: protein: extract; tags: TPA and CI-stimulated Jurkat nuclear extract, Active Motif TransAM kit
Procedure: (§4) The measurement was performed in accordance with the instructions attached to the kit. The kit was made for quantifying the NF-κB bound to the solid phase by ELISA after adding an NF-κB solution to the wells in which the NF-κB (p65 protein) consensus binding sequence was immobilized and after washing the resultant. By this measurement method, the higher the binding capacity of the oligonucleotide to the NF-κB, the smaller amount of the NF-κB quantified by the ELISA.
(§5) More concretely, the above-described measurement was carried out as follows concretely: Each SODN solution was serially diluted with Complete Binding Buffer contained in the kit to prepare test samples (common ratio: 3-fold, 4 times, n=3). […] After allowing coloration for 10 minutes, the Stop Solution was added to stop the reaction, and the absorbances at 450 nm and 630 nm were measured.
(§6) The absorbance at 630 nm was subtracted from the absorbance at 450 nm and the mean value of the blanks was further subtracted from the resultant, and the percentage of the mean value of each concentration based on the mean value of the controls was calculated. The concentration at which the calculated value was 50% (i.e., at which the binding was inhibited by 50%) was calculated from the regression lines between two points interposing 50% (an analysis software Graph Pad PRISM 4, GraphPad SOFTWARE was used). […]

NF-kB p65 (RelA) [3] = molecular target: T2, NF-kB p65 (RelA); test: competition; details: protein: extract; tags: TPA and CI-stimulated Jurkat nuclear extract, Active Motif TransAM kit; remark: listed apart in the source
Procedure: To study the influence by the phosphorothioation site in the oligonucleotide sequence, decoy oligonucleotides (FSODN) in which only the flanking sequences were phosphorothioated and decoy oligonucleotides (ODN) without phosphorothioation having the same sequences, respectively, were synthesized. The binding inhibition activities were compared under the conditions of common ratio of 3-fold, 6 times, n=2. The binding inhibition tests against NF-κB p65 protein was carried out using NF-κB, p65 TransAM Kit (produced by ACTIVE MOTIF), and using NF-κB protein molecules in the Jurkat, TPA and CI-Stimulated, Nuclear
Extract (produced by ACTIVE MOTIF). The testing method was the same as in the above-described Example 5. The term “only the flanking sequences were phosphorothioated” means that the bonds in the flanking sequences and the bonds between the respective flanking sequences and the core were phosphorothioated. For example, as for Sequence 7, it is CsGsCs[…]sAsGsC. The values for PSODNs are those obtained in the secondary screening (above-described Table 4).

NF-kB p65 (RelA) [4] = molecular target: T2, NF-kB p65 (RelA); test: competition; primary screen 2.01; details: protein: extract; tags: TPA and CI-stimulated Jurkat nuclear extract, Active Motif TransAM kit
Procedure: as §4, §5, §6

NF-kB p65 (RelA) [5] = molecular target: T2, NF-kB p65 (RelA); test: competition; primary screen 1.37; details: protein: extract; tags: TPA and CI-stimulated Jurkat nuclear extract, Active Motif TransAM kit
Procedure: as §4, §5, §6

NF-kB p65 (RelA) [6] = molecular target: T2, NF-kB p65 (RelA); test: competition; primary screen 1.31; details: protein: extract; tags: TPA and CI-stimulated Jurkat nuclear extract, Active Motif TransAM kit
Procedure: as §4, §5, §6

NF-kB p65 (RelA) [7] = molecular target: T2, NF-kB p65 (RelA); test: competition; primary screen 2.23; details: protein: extract; tags: TPA and CI-stimulated Jurkat nuclear extract, Active Motif TransAM kit
Procedure: as §4, §5, §6

NF-kB p65 (RelA) [8] = molecular target: T2, NF-kB p65 (RelA); test: competition; primary screen 1.33; details: protein: extract; tags: TPA and CI-stimulated Jurkat nuclear extract, Active Motif TransAM kit
Procedure: as §4, §5, §6

T2 sequence (Q04206 whole entry, one chain of several): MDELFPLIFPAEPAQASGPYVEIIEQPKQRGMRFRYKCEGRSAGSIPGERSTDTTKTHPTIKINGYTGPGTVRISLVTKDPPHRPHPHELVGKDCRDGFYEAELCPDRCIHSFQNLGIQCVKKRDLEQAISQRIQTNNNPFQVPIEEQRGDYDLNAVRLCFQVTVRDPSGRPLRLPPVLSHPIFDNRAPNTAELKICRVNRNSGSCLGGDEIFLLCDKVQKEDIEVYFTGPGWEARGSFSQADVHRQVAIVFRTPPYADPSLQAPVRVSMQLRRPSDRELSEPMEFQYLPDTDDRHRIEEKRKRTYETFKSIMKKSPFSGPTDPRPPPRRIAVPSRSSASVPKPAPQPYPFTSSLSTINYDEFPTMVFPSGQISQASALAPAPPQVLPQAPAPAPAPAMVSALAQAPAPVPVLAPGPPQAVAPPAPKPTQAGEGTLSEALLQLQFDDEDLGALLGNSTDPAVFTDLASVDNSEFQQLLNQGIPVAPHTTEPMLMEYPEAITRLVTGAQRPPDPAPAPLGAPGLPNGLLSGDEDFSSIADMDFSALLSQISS
NF-kB p50 (NFKB1), sequence (P19838 1-433, one chain of several): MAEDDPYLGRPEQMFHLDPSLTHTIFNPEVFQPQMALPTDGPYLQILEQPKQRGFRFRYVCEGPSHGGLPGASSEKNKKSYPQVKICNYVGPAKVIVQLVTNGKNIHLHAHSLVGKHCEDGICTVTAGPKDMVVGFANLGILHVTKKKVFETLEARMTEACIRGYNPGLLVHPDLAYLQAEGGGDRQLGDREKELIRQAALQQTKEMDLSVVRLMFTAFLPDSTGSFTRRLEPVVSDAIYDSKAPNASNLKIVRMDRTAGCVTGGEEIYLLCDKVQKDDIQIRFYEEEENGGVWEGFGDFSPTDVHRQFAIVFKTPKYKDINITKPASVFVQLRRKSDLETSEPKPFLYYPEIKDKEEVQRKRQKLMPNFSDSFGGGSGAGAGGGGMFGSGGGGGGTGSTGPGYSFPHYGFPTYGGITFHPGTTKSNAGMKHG

B1: PSODN30 (dsDNA)
DNA 1: GGCTGGGATTTCCCGCGG
DNA 2: CCGCGGGAAATCCCAGCC
modifications: PS only within consensus gggatttccc, both strands
Q: B1 was tested. Which IC50 (NF-kB p50 (NFKB1)) did it give?
A: 0.69 nM

Q: And the IC50 (NF-kB p52 (NFKB2))?
A: 2.11 nM

Q: What about the IC50 (NF-kB p65 (RelA) [1]) of the same binder?
A: 0.48 nM

B2: SODN7 (dsDNA)
DNA 1: CGCGGGATTTCCCAGC
DNA 2: GCTGGGAAATCCCGCG
modifications: PS all bonds, both strands
Q: Which IC50 (NF-kB p65 (RelA) [2]) does the source give for B2 here?
A: 1.75 nM

B3: FSODN16 (dsDNA)
DNA 1: CGCAGGGATTTCCCGCG
DNA 2: CGCGGGAAATCCCTGCG
modifications: PS only in flanks and flank-core bonds
Q: With B3 as the binder, how does the IC50 (NF-kB p65 (RelA) [3]) read?
A: 1.11 nM

B4: SODN8 (dsDNA)
DNA 1: CCCGGGATTTCCCACC
DNA 2: GGTGGGAAATCCCGGG
modifications: PS all bonds, both strands
Q: How did the IC50 (NF-kB p65 (RelA) [4]) turn out when B4 was run?
A: 2.12 nM

B5: SODN9 (dsDNA)
DNA 1: GGAGGGATTTCCCGGG
DNA 2: CCCGGGAAATCCCTCC
modifications: PS all bonds, both strands
Q: With B5 as the binder, how does the IC50 (NF-kB p65 (RelA) [4]) read?
A: 1.88 nM

B6: SODN16 (dsDNA)
DNA 1: CGCAGGGATTTCCCGCG
DNA 2: CGCGGGAAATCCCTGCG
modifications: PS all bonds, both strands
Q: With B6 as the binder, how does the IC50 (NF-kB p65 (RelA) [5]) read?
A: 1.98 nM

B7: SODN17 (dsDNA)
DNA 1: CCCTGGGATTTCCCGCC
DNA 2: GGCGGGAAATCCCAGGG
modifications: PS all bonds, both strands
Q: With B7 as the binder, how does the IC50 (NF-kB p65 (RelA) [6]) read?
A: 1.81 nM

B8: SODN27 (dsDNA)
DNA 1: CGCAGGGATTTCCCGCGC
DNA 2: GCGCGGGAAATCCCTGCG
modifications: PS all bonds, both strands
Q: How did the IC50 (NF-kB p65 (RelA) [7]) turn out when B8 was run?
A: 2.87 nM

B9: SODN30 (dsDNA)
DNA 1: GGCTGGGATTTCCCGCGG
DNA 2: CCGCGGGAAATCCCAGCC
modifications: PS all bonds, both strands
Q: B9 was tested. Which IC50 (NF-kB p65 (RelA) [8]) did it give?
A: 1.87 nM
